Experimental data as given in patent US20260258156A1 (TRIVENI BIO, published 2026).

Assays:
[1] = biological target: T1, human KLK5, active form (human, UniProt Q9Y337 67-293); experiment: cell-based or functional assay
[2] = biological target: T2, human KLK7, active form (human, UniProt P49862 30-253); experiment: cell-based or functional assay
[3] = biological target: mouse KLK5 (mouse); experiment: cell-based or functional assay
[4] = biological target: T3, mouse KLK7 (mouse, UniProt Q91VE3 26-249, limits assumed); experiment: cell-based or functional assay
T3 sequence (Q91VE3 26-249 limits assumed): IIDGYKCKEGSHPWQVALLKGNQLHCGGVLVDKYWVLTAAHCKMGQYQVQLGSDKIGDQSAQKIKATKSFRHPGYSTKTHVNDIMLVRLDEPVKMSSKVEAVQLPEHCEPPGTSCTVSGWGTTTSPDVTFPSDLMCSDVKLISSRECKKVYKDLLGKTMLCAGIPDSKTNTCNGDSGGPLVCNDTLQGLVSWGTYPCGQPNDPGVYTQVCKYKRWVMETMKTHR

[5] = biological target: T1, human KLK5, active form; experiment: SPR (Biacore), antibody captured on Protein A chip, KLK as analyte, single-cycle kinetics, 25 C
Description: (§1) All screening assays were performed at 25° C. The running buffer used was 20 mM HEPES, 300 mM NaCl, 0.01% Tween-20, pH 7.5. Antibodies (1 μg/mL) were captured on Fc2-4 of a Series S ProteinA Sensor Chip (Cytiva) flowing at 10 μL/min for 30 s. Kinetics measurements were made in single-cycle kinetics mode with a series of 4-5 concentrations with top concentration of 25-100 nM and serial dilution 4-fold. Contact time was typically 300 s and dissociation time ranged from 1800-3600 s. Flow rate of 30 μL/min was typically used. The sensor chip was regenerated with 10 mM glycine, pH 1.5 with a contact time of 30 s flowing at 50 μL/min.

[6] = biological target: T2, human KLK7, active form; experiment: as above
Description: as §1

[7] = biological target: T4, mouse KLK5 (mouse); experiment: as above
T4 construct: also called mKLK5
Description: as §1

[8] = biological target: T3, mouse KLK7; experiment: as above
Description: as §1

[9] = biological target: T1, human KLK5, active form; experiment: SPR (Biacore), antibody captured on Protein A chip, active huKLK5 injected at 0.156-40 nM
Description: (§2) The sensor chip was regenerated with 10 mM glycine, pH 1.5 with a contact time of 30 seconds flowing at 50 μL/min.

[10] = biological target: T2, human KLK7, active form; experiment: SPR (Biacore), antibody captured on Protein A chip, active huKLK7 injected at 0.156-40 nM
Description: as §2

[11] = biological target: T5, pro-form of human KLK5 (human, UniProt Q9Y337 23-293); experiment: SPR (Biacore), antibody captured on Protein A chip, proform huKLK5 injected at 0.156-40 nM
T5 construct: Pro-form (zymogen); also called proform of huKLK5; proKLK5
Description: as §2

[12] = biological target: T6, pro-form of human KLK7 (human, UniProt P49862 23-253); experiment: SPR (Biacore), antibody captured on Protein A chip, proform huKLK7 injected at 0.156-40 nM
T6 construct: Pro-form (zymogen); also called proform of huKLK7; proKLK7
T6 sequence (P49862 23-253): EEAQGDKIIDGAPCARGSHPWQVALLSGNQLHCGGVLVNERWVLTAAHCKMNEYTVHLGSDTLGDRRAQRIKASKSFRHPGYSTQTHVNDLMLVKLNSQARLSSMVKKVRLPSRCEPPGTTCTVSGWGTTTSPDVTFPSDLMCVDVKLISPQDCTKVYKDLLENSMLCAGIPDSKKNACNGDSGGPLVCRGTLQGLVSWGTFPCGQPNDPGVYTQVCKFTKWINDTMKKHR
Description: as §2

T2 sequence (P49862 30-253): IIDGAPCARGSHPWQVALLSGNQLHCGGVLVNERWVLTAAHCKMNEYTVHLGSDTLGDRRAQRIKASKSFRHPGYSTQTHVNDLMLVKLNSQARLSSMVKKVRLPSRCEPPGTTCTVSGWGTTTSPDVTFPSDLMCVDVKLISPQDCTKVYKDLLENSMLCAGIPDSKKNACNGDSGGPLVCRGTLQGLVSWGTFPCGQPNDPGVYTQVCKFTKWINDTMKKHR

B1: KLK5/KLK7-Dual-Ab2 (antibody, V domains shown)
VH: QLQLQESGPGLVKPSETLSLTCTVSGGSISSDDYYWVWIRQPPGKGLEWIGSIDYFASTYYNPSLKSRVTISVDTSKNQFSLKLSSVTAADTAVYYCARGRPLGYGARHDYYGMDVWGQGTTVTVSS
VL: DIQMTQSPSSLSASVGDRVTITCRASQSISSYLNWYQQKPGKAPKLLIYSASSLQSGVPSRFSGSGSGTDFTLTISSLQPEDFATYYCQQSPYFPPLTFGGGTKVEIK
notes: Captured on a Protein A chip as an antibody; also called KLK5/7-Dual-Ab2
With B1 the “IC50(nM), inhibition of protease activity (cleavage of BOC-Val-Pro-Arg-AMC)” value [1] was 0.25 nM, the “IC50(nM), inhibition of protease activity (cleavage of KHLF-AMC)” value [2] was 0.25 nM and the “IC50(nM), inhibition of protease activity (cleavage of BOC-Val-Pro-Arg-AMC)” value [3] was 17.2 nM. The “IC50(nM), inhibition of protease activity (cleavage of KHLF-AMC)” value [4] was 5.13 nM, the Kd [5] was 0.01 nM and the Kd [6] was 0.0218 nM. It also gave a Kd [7] of 2.79 nM and a Kd [8] of 1.55 nM.

B2: KLK5/KLK7-Dual-Ab1 (antibody, V domains shown)
VH: QLQLQESGPGLVKPSETLSLTCTVSGGSISSSDYYWGWIRQPPGKGLEWIGSIYYSGSTYYNPSLKSRVTISVDTSKNQFSLKLSSVTAADTAVYYCARGRPLGYGARHYYYGMDVWGQGTTVTVSS
VL: DIQMTQSPSSLSASVGDRVTITCRASQSISSYLNWYQQKPGKAPKLLIYSASSLQSGVPSRFSGSGSGTDFTLTISSLQPEDFATYYCQQSPPFPPLTFGGGTKVEIK
notes: Captured on a Protein A chip as an antibody; also called KLK5/7-Dual-Ab1
Binder B2 has a Kd [5] of 1000 nM, a Kd [6] of 1.82 nM and a Kd [8] of 1 nM.

B3: KLK5/KLK7-Dual-Ab3 (antibody, V domains shown)
VH: QLQLQESGPGLVKPSETLSLTCTVSGGSISSDDYYWVWIRQPPGKGLEWIGSIDYYASTYYSPSLKSRVTISVDTSKNQFSLKLSSVTAADTAVYYCARGRPLGYGAKHYYYGMDVWGQGTTVTVSS
VL: DIQMTQSPSSLSASVGDRVTITCRASQSISSYLNWYQQKPGKAPKLLIYSASSLQSGVPSRFSGSGSGTDFTLTISSLQPEDFATYYCQQSPYFPPLTFGGGTKVEIK
notes: Captured on a Protein A chip as an antibody; also called KLK5/7-Dual-Ab3
In the case of B3, the “IC50(nM), inhibition of protease activity (cleavage of BOC-Val-Pro-Arg-AMC)” value [1] is reported as 0.25 nM, the “IC50(nM), inhibition of protease activity (cleavage of KHLF-AMC)” value [2] is reported as 0.21 nM and the “IC50(nM), inhibition of protease activity (cleavage of BOC-Val-Pro-Arg-AMC)” value [3] is reported as 24.1 nM. The “IC50(nM), inhibition of protease activity (cleavage of KHLF-AMC)” value [4] was 5.28 nM, the Kd [5] was 0.141 nM and the Kd [6] was 0.0136 nM. For the same binder, the Kd [7] was 4.02 nM and the Kd [8] was 1.11 nM.

B4: KLK5/KLK7-Dual-Ab4 (antibody, V domains shown)
VH: QLQLQESGPGLVKPSETLSLTCTVSGGSISSLDYYWVWIRQPPGKGLEWIGSIDYSGDTYYNPSLKSRVTISVDTSKNQFSLKLSSVTAADTAVYYCARGRPLGYGARHYYYAMDVWGQGTTVTVSS
VL: DIQMTQSPSSLSASVGDRVTITCRASQSISSYLNWYQQKPGKAPKLLIYSASSLQSGVPSRFSGSGSGTDFTLTISSLQPEDFATYYCQQSPYFPPLTFGGGTKVEIK
notes: Captured on a Protein A chip or coupled to a CM5 chip as an antibody; also called KLK5/7-Dual-Ab4
B4 was tested, and the “IC50(nM), inhibition of protease activity (cleavage of BOC-Val-Pro-Arg-AMC)” value [1] was 0.27 nM, the “IC50(nM), inhibition of protease activity (cleavage of KHLF-AMC)” value [2] was 0.16 nM and the “IC50(nM), inhibition of protease activity (cleavage of BOC-Val-Pro-Arg-AMC)” value [3] was 16.1 nM. The “IC50(nM), inhibition of protease activity (cleavage of KHLF-AMC)” value [4] was 1.77 nM, the Kd [5] was 0.0243 nM and the Kd [6] was 0.002 nM. The Kd [7] was 3.15 nM, the Kd [8] was 0.129 nM and the Kd [9] was under 0.05 nM. The Kd [10] was under 0.05 nM, the binding result [11] was “no binding (tested: 40 nM)” and the binding result [12] was “no binding (tested: 40 nM)”.
